# Patent US20240270846A1 (published 2024)
# Biological target: T1, CD3 epsilon homodimer protein (UniProt P07766 23-126)
# T1 construct: Immobilized on Sensor chip CM4 by amine coupling; construct not described; also called CD3 (CD3 epsilon)
# Test: SPR Biacore T200, CD3 epsilon homodimer on CM4 chip, antibody as analyte;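 further: Amine-coupled CD3 epsilon homodimer, run at 25 °C in HBS-EP+ buffer, ratio is bound amount of each single-residue H chain variant over that of the parent antibody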
# T1 sequence (P07766 23-126): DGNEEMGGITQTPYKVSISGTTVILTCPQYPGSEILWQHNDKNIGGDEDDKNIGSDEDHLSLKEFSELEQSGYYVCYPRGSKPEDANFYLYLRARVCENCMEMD
row,Binder,ratio of amounts bound (Y/X vs CE115HA000)
1,"CE115HA000 D72V one-arm antibody (antibody, human IgG1, kappa, L234A L235A, N297A, name in Kabat numbering, one-arm antibody (one Fab)) heavy: QVQLVESGGGVVQPGRSLRLSCAASGFTFSNAWMHWVRQAPGKGLEWVAQIKAKSNNYATYYAESVKGRFTISRVDSKNSLYLQMNSLKTEDTAVYYCRYVHYGAYYGVDAWGQGTTVTVSSASTKGPSVFPLAPSSKSTSGGTAALGCLVKDYFPEPVTVSWNSGALTSGVHTFPAVLQSSGLYSLSSVVTVPSSSLGTQTYICNVNHKPSNTKVDKKVEPKSCDKTHTCPPCPAPEAAGGPSVFLFPPKPKDTLMISRTPEVTCVVVDVSHEDPEVKFNWYVDGVEVHNAKTKPREEQYASTYRVVSVLTVLHQDWLNGKEYKCKVSNKALPAPIEKTISKAKGQPREPQVYTLPPSRCELTKNQVSLSCAVKGFYPSDIAVEWESNGQPENNYKTTPPVLDSDGSFFLVSKLTVDKSRWQQGNVFSCSVMHEALHNHYTQKSLSLSPDYKDDDDK EPKSSDKTHTCPPCPAPELLGGPSVFLFPPKPKDTLMISRTPEVTCVVVDVSHEDPEVKFNWYVDGVEVHNAKTKPREEQYNSTYRVVSVLTVLHQDWLNGKEYKCKVSNKALPAPIEKTISKAKGQPREPQVCTLPPSRDELTKNQVSLWCLVKGFYPSDIAVEWESNGQPENNYKTTPPVLDSDGSFFLYSKLTVDKSRWQQGNVFSCSVMHEALHNRYTQKSLSLSP light: DIVMTQSPLSLPVTPGEPASISCRSSQSLVHSNRNTYLHWYQQKPGQAPRLLIYKVSNRFSGVPDRFSGSGSGTDFTLKISRVEAEDVGVYYCGQGTQVPYTFGQGTKLEIKRTVAAPSVFIFPPSDEQLKSGTASVVCLLNNFYPREAKVQWKVDNALQSGNSQESVTEQDSKDSTYSLSSTLTLSKADYEKHKVYACEVTHQGLSSPVTKSFNRGEC",1.43
2,"CE115HA000 D73T one-arm antibody (antibody, human IgG1, kappa, L234A L235A, N297A, name in Kabat numbering, one-arm antibody (one Fab)) heavy: QVQLVESGGGVVQPGRSLRLSCAASGFTFSNAWMHWVRQAPGKGLEWVAQIKAKSNNYATYYAESVKGRFTISRDTSKNSLYLQMNSLKTEDTAVYYCRYVHYGAYYGVDAWGQGTTVTVSSASTKGPSVFPLAPSSKSTSGGTAALGCLVKDYFPEPVTVSWNSGALTSGVHTFPAVLQSSGLYSLSSVVTVPSSSLGTQTYICNVNHKPSNTKVDKKVEPKSCDKTHTCPPCPAPEAAGGPSVFLFPPKPKDTLMISRTPEVTCVVVDVSHEDPEVKFNWYVDGVEVHNAKTKPREEQYASTYRVVSVLTVLHQDWLNGKEYKCKVSNKALPAPIEKTISKAKGQPREPQVYTLPPSRCELTKNQVSLSCAVKGFYPSDIAVEWESNGQPENNYKTTPPVLDSDGSFFLVSKLTVDKSRWQQGNVFSCSVMHEALHNHYTQKSLSLSPDYKDDDDK EPKSSDKTHTCPPCPAPELLGGPSVFLFPPKPKDTLMISRTPEVTCVVVDVSHEDPEVKFNWYVDGVEVHNAKTKPREEQYNSTYRVVSVLTVLHQDWLNGKEYKCKVSNKALPAPIEKTISKAKGQPREPQVCTLPPSRDELTKNQVSLWCLVKGFYPSDIAVEWESNGQPENNYKTTPPVLDSDGSFFLYSKLTVDKSRWQQGNVFSCSVMHEALHNRYTQKSLSLSP light: DIVMTQSPLSLPVTPGEPASISCRSSQSLVHSNRNTYLHWYQQKPGQAPRLLIYKVSNRFSGVPDRFSGSGSGTDFTLKISRVEAEDVGVYYCGQGTQVPYTFGQGTKLEIKRTVAAPSVFIFPPSDEQLKSGTASVVCLLNNFYPREAKVQWKVDNALQSGNSQESVTEQDSKDSTYSLSSTLTLSKADYEKHKVYACEVTHQGLSSPVTKSFNRGEC",0.63
3,"CE115HA000 D73R one-arm antibody (antibody, human IgG1, kappa, L234A L235A, N297A, name in Kabat numbering, one-arm antibody (one Fab)) heavy: QVQLVESGGGVVQPGRSLRLSCAASGFTFSNAWMHWVRQAPGKGLEWVAQIKAKSNNYATYYAESVKGRFTISRDRSKNSLYLQMNSLKTEDTAVYYCRYVHYGAYYGVDAWGQGTTVTVSSASTKGPSVFPLAPSSKSTSGGTAALGCLVKDYFPEPVTVSWNSGALTSGVHTFPAVLQSSGLYSLSSVVTVPSSSLGTQTYICNVNHKPSNTKVDKKVEPKSCDKTHTCPPCPAPEAAGGPSVFLFPPKPKDTLMISRTPEVTCVVVDVSHEDPEVKFNWYVDGVEVHNAKTKPREEQYASTYRVVSVLTVLHQDWLNGKEYKCKVSNKALPAPIEKTISKAKGQPREPQVYTLPPSRCELTKNQVSLSCAVKGFYPSDIAVEWESNGQPENNYKTTPPVLDSDGSFFLVSKLTVDKSRWQQGNVFSCSVMHEALHNHYTQKSLSLSPDYKDDDDK EPKSSDKTHTCPPCPAPELLGGPSVFLFPPKPKDTLMISRTPEVTCVVVDVSHEDPEVKFNWYVDGVEVHNAKTKPREEQYNSTYRVVSVLTVLHQDWLNGKEYKCKVSNKALPAPIEKTISKAKGQPREPQVCTLPPSRDELTKNQVSLWCLVKGFYPSDIAVEWESNGQPENNYKTTPPVLDSDGSFFLYSKLTVDKSRWQQGNVFSCSVMHEALHNRYTQKSLSLSP light: DIVMTQSPLSLPVTPGEPASISCRSSQSLVHSNRNTYLHWYQQKPGQAPRLLIYKVSNRFSGVPDRFSGSGSGTDFTLKISRVEAEDVGVYYCGQGTQVPYTFGQGTKLEIKRTVAAPSVFIFPPSDEQLKSGTASVVCLLNNFYPREAKVQWKVDNALQSGNSQESVTEQDSKDSTYSLSSTLTLSKADYEKHKVYACEVTHQGLSSPVTKSFNRGEC",1.04
4,"CE115HA000 D73N one-arm antibody (antibody, human IgG1, kappa, L234A L235A, N297A, name in Kabat numbering, one-arm antibody (one Fab)) heavy: QVQLVESGGGVVQPGRSLRLSCAASGFTFSNAWMHWVRQAPGKGLEWVAQIKAKSNNYATYYAESVKGRFTISRDNSKNSLYLQMNSLKTEDTAVYYCRYVHYGAYYGVDAWGQGTTVTVSSASTKGPSVFPLAPSSKSTSGGTAALGCLVKDYFPEPVTVSWNSGALTSGVHTFPAVLQSSGLYSLSSVVTVPSSSLGTQTYICNVNHKPSNTKVDKKVEPKSCDKTHTCPPCPAPEAAGGPSVFLFPPKPKDTLMISRTPEVTCVVVDVSHEDPEVKFNWYVDGVEVHNAKTKPREEQYASTYRVVSVLTVLHQDWLNGKEYKCKVSNKALPAPIEKTISKAKGQPREPQVYTLPPSRCELTKNQVSLSCAVKGFYPSDIAVEWESNGQPENNYKTTPPVLDSDGSFFLVSKLTVDKSRWQQGNVFSCSVMHEALHNHYTQKSLSLSPDYKDDDDK EPKSSDKTHTCPPCPAPELLGGPSVFLFPPKPKDTLMISRTPEVTCVVVDVSHEDPEVKFNWYVDGVEVHNAKTKPREEQYNSTYRVVSVLTVLHQDWLNGKEYKCKVSNKALPAPIEKTISKAKGQPREPQVCTLPPSRDELTKNQVSLWCLVKGFYPSDIAVEWESNGQPENNYKTTPPVLDSDGSFFLYSKLTVDKSRWQQGNVFSCSVMHEALHNRYTQKSLSLSP light: DIVMTQSPLSLPVTPGEPASISCRSSQSLVHSNRNTYLHWYQQKPGQAPRLLIYKVSNRFSGVPDRFSGSGSGTDFTLKISRVEAEDVGVYYCGQGTQVPYTFGQGTKLEIKRTVAAPSVFIFPPSDEQLKSGTASVVCLLNNFYPREAKVQWKVDNALQSGNSQESVTEQDSKDSTYSLSSTLTLSKADYEKHKVYACEVTHQGLSSPVTKSFNRGEC",0.94
